Target: RPA (Homo sapiens, UniProt P27694;P15927;P35244 1-616;1-270;1-121)
Experiment: EMSA

RPA, sequence (P27694 whole entry, chain 1 of 3): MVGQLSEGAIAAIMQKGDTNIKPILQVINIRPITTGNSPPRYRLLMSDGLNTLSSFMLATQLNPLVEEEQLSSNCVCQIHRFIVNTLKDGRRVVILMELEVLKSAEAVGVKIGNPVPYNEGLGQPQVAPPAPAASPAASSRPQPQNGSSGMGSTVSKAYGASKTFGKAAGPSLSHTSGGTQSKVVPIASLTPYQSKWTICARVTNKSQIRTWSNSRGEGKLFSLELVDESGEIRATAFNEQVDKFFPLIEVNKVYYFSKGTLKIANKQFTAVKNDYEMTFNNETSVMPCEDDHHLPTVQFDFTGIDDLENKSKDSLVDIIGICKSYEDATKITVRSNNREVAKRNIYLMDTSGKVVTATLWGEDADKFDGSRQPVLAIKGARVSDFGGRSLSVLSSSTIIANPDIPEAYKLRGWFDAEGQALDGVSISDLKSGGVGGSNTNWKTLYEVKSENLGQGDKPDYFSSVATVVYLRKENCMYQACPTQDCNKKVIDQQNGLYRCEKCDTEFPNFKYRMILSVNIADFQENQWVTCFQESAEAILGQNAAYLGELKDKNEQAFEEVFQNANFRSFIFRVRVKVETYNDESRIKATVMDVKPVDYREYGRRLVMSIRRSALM
RPA, sequence (P15927 whole entry, chain 2 of 3): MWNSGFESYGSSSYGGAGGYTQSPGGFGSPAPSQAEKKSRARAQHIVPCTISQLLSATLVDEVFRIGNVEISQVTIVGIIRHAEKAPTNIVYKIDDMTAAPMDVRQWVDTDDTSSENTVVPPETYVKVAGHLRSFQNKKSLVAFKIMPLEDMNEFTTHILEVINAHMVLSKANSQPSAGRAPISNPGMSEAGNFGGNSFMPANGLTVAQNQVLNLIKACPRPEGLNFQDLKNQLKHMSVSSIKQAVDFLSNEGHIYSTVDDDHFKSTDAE
RPA, sequence (P35244 whole entry, chain 3 of 3): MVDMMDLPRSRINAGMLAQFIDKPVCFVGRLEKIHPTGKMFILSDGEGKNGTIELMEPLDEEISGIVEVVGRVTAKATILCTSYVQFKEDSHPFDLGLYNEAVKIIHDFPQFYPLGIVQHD

B1: R:D (25-bp RNA:DNA hybrid) (DNA:RNA)
RNA: GCAGCUGGCACGACAGGUAUGAAUC
DNA: GATTCATACCTGTCGTGCCAGCTGC
binding result: no binding
